{
  "source": "the supplement of paper PMC9112550",
  "about": "“Optimization of the antimicrobial peptide Bac7 by deep mutational scanning” (BMC Biology, 2022);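 note: peptides expressed intracellularly from a pBAD plasmid library in pooled LB shake-flask culture, induced with 0.3% L-arabinose, DNA abundance read by NGS, three biological replicates, DESeq2 with apeglm shrinkage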",
  "data": [
    {"tested_on": "Escherichia coli TOP10", "experiment": "shrunken log2 fold change of peptide-encoding DNA abundance (4.5 h post-induction vs induction); higher = less antimicrobial activity (less host growth inhibition)", "settings": "time post-induction: 4.5 h; library: site-saturation at positions 5, 18, 19, 20", "values": [
      {"sequence": "RRIRNRPPRLPRPRPRPLDDPRP", "shrunken log2 fold change": -0.0578},
      {"sequence": "RRIRMRPPRLPRPRPRPPQIPRP", "shrunken log2 fold change": 0.468},
      {"sequence": "RRIRFRPPRLPRPRPRPLTCPRP", "shrunken log2 fold change": -0.182},
      {"sequence": "RRIRGRPPRLPRPRPRPCKVPRP", "shrunken log2 fold change": 0.00141},
      {"sequence": "RRIRTRPPRLPRPRPRPCEFPRP", "shrunken log2 fold change": -0.258},
      {"sequence": "RRIRARPPRLPRPRPRPALLPRP", "shrunken log2 fold change": 0.718},
      {"sequence": "RRIRQRPPRLPRPRPRPCDTPRP", "shrunken log2 fold change": -0.435},
      {"sequence": "RRIRVRPPRLPRPRPRPYSEPRP", "shrunken log2 fold change": -0.217},
      {"sequence": "RRIRDRPPRLPRPRPRPLWAPRP", "shrunken log2 fold change": 0.0876},
      {"sequence": "RRIRFRPPRLPRPRPRPYAVPRP", "shrunken log2 fold change": -0.419},
      {"sequence": "RRIRERPPRLPRPRPRPILLPRP", "shrunken log2 fold change": -0.336},
      {"sequence": "RRIRVRPPRLPRPRPRPCQHPRP", "shrunken log2 fold change": -0.09},
      {"sequence": "RRIRNRPPRLPRPRPRPMMRPRP", "shrunken log2 fold change": 0.0611},
      {"sequence": "RRIRKRPPRLPRPRPRPAALPRP", "shrunken log2 fold change": 0.831},
      {"sequence": "RRIRRRPPRLPRPRPRPCCIPRP", "shrunken log2 fold change": -0.179},
      {"sequence": "RRIRARPPRLPRPRPRPPETPRP", "shrunken log2 fold change": 0.55},
      {"sequence": "RRIRYRPPRLPRPRPRPIKPPRP", "shrunken log2 fold change": -0.0229},
      {"sequence": "RRIRQRPPRLPRPRPRPYTYPRP", "shrunken log2 fold change": -0.157},
      {"sequence": "RRIRPRPPRLPRPRPRPFEVPRP", "shrunken log2 fold change": 0.0802},
      {"sequence": "RRIRKRPPRLPRPRPRPHFFPRP", "shrunken log2 fold change": 0.101},
      {"sequence": "RRIRTRPPRLPRPRPRPIGEPRP", "shrunken log2 fold change": -0.195},
      {"sequence": "RRIRLRPPRLPRPRPRPEEAPRP", "shrunken log2 fold change": 0.495},
      {"sequence": "RRIRLRPPRLPRPRPRPYDDPRP", "shrunken log2 fold change": -0.167},
      {"sequence": "RRIRFRPPRLPRPRPRPKWKPRP", "shrunken log2 fold change": -0.0366},
      {"sequence": "RRIRQRPPRLPRPRPRPQTLPRP", "shrunken log2 fold change": -0.319},
      {"sequence": "RRIRQRPPRLPRPRPRPYTFPRP", "shrunken log2 fold change": -0.0307},
      {"sequence": "RRIRNRPPRLPRPRPRPGGQPRP", "shrunken log2 fold change": 0.0599},
      {"sequence": "RRIRLRPPRLPRPRPRPHWIPRP", "shrunken log2 fold change": -0.162},
      {"sequence": "RRIRSRPPRLPRPRPRPPFHPRP", "shrunken log2 fold change": -0.0308},
      {"sequence": "RRIRMRPPRLPRPRPRPGSEPRP", "shrunken log2 fold change": 0.952},
      {"sequence": "RRIRGRPPRLPRPRPRPAYFPRP", "shrunken log2 fold change": 0.235},
      {"sequence": "RRIRVRPPRLPRPRPRPGHKPRP", "shrunken log2 fold change": -0.17},
      {"sequence": "RRIRERPPRLPRPRPRPHLEPRP", "shrunken log2 fold change": -0.0328},
      {"sequence": "RRIRERPPRLPRPRPRPRGKPRP", "shrunken log2 fold change": 0.0142},
      {"sequence": "RRIRKRPPRLPRPRPRPRESPRP", "shrunken log2 fold change": 0.159},
      {"sequence": "RRIRPRPPRLPRPRPRPVGRPRP", "shrunken log2 fold change": 0.0963},
      {"sequence": "RRIRCRPPRLPRPRPRPSHWPRP", "shrunken log2 fold change": -0.204},
      {"sequence": "RRIRLRPPRLPRPRPRPSLDPRP", "shrunken log2 fold change": -0.142},
      {"sequence": "RRIRARPPRLPRPRPRPPYPPRP", "shrunken log2 fold change": 0.256},
      {"sequence": "RRIRVRPPRLPRPRPRPTFQPRP", "shrunken log2 fold change": -0.0952},
      {"sequence": "RRIRKRPPRLPRPRPRPQLLPRP", "shrunken log2 fold change": 0.261},
      {"sequence": "RRIRNRPPRLPRPRPRPSEGPRP", "shrunken log2 fold change": -0.0276},
      {"sequence": "RRIRTRPPRLPRPRPRPSTWPRP", "shrunken log2 fold change": -0.176},
      {"sequence": "RRIRGRPPRLPRPRPRPCYHPRP", "shrunken log2 fold change": -0.345},
      {"sequence": "RRIRQRPPRLPRPRPRPNQVPRP", "shrunken log2 fold change": -0.0722},
      {"sequence": "RRIRLRPPRLPRPRPRPAWMPRP", "shrunken log2 fold change": -0.0208},
      {"sequence": "RRIRVRPPRLPRPRPRPWNSPRP", "shrunken log2 fold change": -0.106},
      {"sequence": "RRIRDRPPRLPRPRPRPKLDPRP", "shrunken log2 fold change": 0.0966},
      {"sequence": "RRIRNRPPRLPRPRPRPFLTPRP", "shrunken log2 fold change": -0.505},
      {"sequence": "RRIRSRPPRLPRPRPRPEPKPRP", "shrunken log2 fold change": 0.954},
      {"sequence": "RRIRTRPPRLPRPRPRPNRNPRP", "shrunken log2 fold change": -0.544},
      {"sequence": "RRIRFRPPRLPRPRPRPTFSPRP", "shrunken log2 fold change": -0.0425},
      {"sequence": "RRIRERPPRLPRPRPRPIFTPRP", "shrunken log2 fold change": -0.195},
      {"sequence": "RRIRYRPPRLPRPRPRPIRKPRP", "shrunken log2 fold change": -0.0667},
      {"sequence": "RRIRCRPPRLPRPRPRPSGSPRP", "shrunken log2 fold change": -0.125},
      {"sequence": "RRIRSRPPRLPRPRPRPSNVPRP", "shrunken log2 fold change": -0.47},
      {"sequence": "RRIRGRPPRLPRPRPRPTTCPRP", "shrunken log2 fold change": 0.849},
      {"sequence": "RRIRDRPPRLPRPRPRPAAVPRP", "shrunken log2 fold change": 0.609},
      {"sequence": "RRIRWRPPRLPRPRPRPDWSPRP", "shrunken log2 fold change": 0.0189},
      {"sequence": "RRIRNRPPRLPRPRPRPIQHPRP", "shrunken log2 fold change": -0.0743},
      {"sequence": "RRIRIRPPRLPRPRPRPQAIPRP", "shrunken log2 fold change": 0.0305},
      {"sequence": "RRIRARPPRLPRPRPRPFQRPRP", "shrunken log2 fold change": -0.0439},
      {"sequence": "RRIRRRPPRLPRPRPRPIYHPRP", "shrunken log2 fold change": -0.258},
      {"sequence": "RRIRFRPPRLPRPRPRPMWIPRP", "shrunken log2 fold change": -0.106},
      {"sequence": "RRIRCRPPRLPRPRPRPYVAPRP", "shrunken log2 fold change": -0.858},
      {"sequence": "RRIRMRPPRLPRPRPRPGESPRP", "shrunken log2 fold change": 1.29},
      {"sequence": "RRIRKRPPRLPRPRPRPKWAPRP", "shrunken log2 fold change": 0.0446},
      {"sequence": "RRIRARPPRLPRPRPRPNQIPRP", "shrunken log2 fold change": 0.0775},
      {"sequence": "RRIRQRPPRLPRPRPRPIHKPRP", "shrunken log2 fold change": -0.651},
      {"sequence": "RRIRCRPPRLPRPRPRPALGPRP", "shrunken log2 fold change": 0.38},
      {"sequence": "RRIRTRPPRLPRPRPRPLNMPRP", "shrunken log2 fold change": 0.00244},
      {"sequence": "RRIRARPPRLPRPRPRPNYIPRP", "shrunken log2 fold change": -0.414},
      {"sequence": "RRIRQRPPRLPRPRPRPKHEPRP", "shrunken log2 fold change": 0.164},
      {"sequence": "RRIRGRPPRLPRPRPRPLNDPRP", "shrunken log2 fold change": 0.388},
      {"sequence": "RRIRNRPPRLPRPRPRPWAIPRP", "shrunken log2 fold change": -0.179}
    ]}
  ]
}
